Reference: article PMC6775958 (Pharmacology Research & Perspectives, 2019)
Where “and” joins values, the source holds several entries; their conditions need not be identical. Identical values can stand only once. Like-named read-outs stand apart in the source and are kept apart here.

Legend:
[1] = Pharmacokinetics of RHI in anesthetized swine; assay type: in vivo; details: 20 IU RHI, mean ± SEM; for Cmax (peak serum concentration), Non-transformed / Tmax (time to peak serum concentration): non-compartmental
[2] = Euglycemic glucose clamp; assay type: in vivo, swine; details: 20 IU RHI
[3] = conscious dogs, cited from earlier work; for Bioavailability: pilot experiments
[4] = Subcutaneous, natural logarithmic scale, n = 9

Substance | Cmax (peak serum concentration), Non-transformed ([1]; Intrajejunal wall (ODP), n = 8) | Tmax (time to peak serum concentration) ([1]; Intrajejunal wall (ODP), n = 8) | Area under the insulin concentration curve ([1]; ODP (jejunal wall), n = 8 (abstract)) | Area under the insulin concentration curve ([1]; Subcutaneous, n = 9 (abstract)) | AUClast, Log-transformed [1, 4] | Cmax, Log-transformed [1, 4] | Cmax (peak serum concentration), Non-transformed ([1]; Subcutaneous, n = 9) | Tmax (time to peak serum concentration) ([1]; Subcutaneous, n = 9) | Biological activity of RHI delivered by the ODP (increased demand for glucose delivery to maintain the euglycemic clamp) ([2]; ODP (jejunal wall), anesthetized swine) | Mean AUClast of glucose infusion rates ([2]; Subcutaneous, euglycemic clamp, swine, 0-420 min, mean ± SEM, n = 9) | Cmax after oral than after subcutaneous administration ([3]; oral ODP vs subcutaneous) | Tmax after oral than after subcutaneous administration ([3]; oral ODP vs subcutaneous) | Bioavailability ([3]; oral delivery by the ODP) | Bioavailability ([3]; subcutaneous injections)
recombinant human insulin [RHI] | 0.517 ± 0.109 nM | 2.32 ± 0.65 h and 2.32 ± 0.7 h | 83 ± 18 nmol/L/min | 81 ± 10 nmol/L/min | 2178 ± 49 pmol/L·min | 5.74 ± 0.17 pmol/L | 0.342 ± 0.05 nM | 4 ± 0.517 h and 3.78 ± 0.4 h | confirmed | 106 ± 10 g/min^2 | – | – | – | –
human immunoglobulin G [human IgG] | – | – | – | – | – | – | – | – | – | – | higher | shorter | 60% | 50%
